B1: P284E-N287Q-S322T-N388M-K394R-C430N-L432F-L434W-S436N-dA463-A470S (protein)
chain: MFLKSLREQINLLKRQGDLRIINRPVDSYLEAAAIIRRSTETKAPVPLMTNIKGYPGCSIVGGLAALSSNPEYPLSRVAMSLGLSTTASAQSIVQYLIDGLKKTPYLPVEIDSNSAPCKQNILRGEDASLAHFPIPQVHQHDGNRYVNTWGVFIVESPDGQWCNWSIQRVQYLNDRQMIALVFPSQHISDIWEEWVKIGKPMPYALVQGCEPIVPYIAGLPLLERNVNEAEYIGALYGKGIEVVKCETHDLRVPASSEVVIEGYFAITREGVEGPFGEFAGYIENEQSLQPILSITAISWQDDPIWPVVAEGKPVDEYHTCTGIGDAAAIQNVLLTANLPVSFVWVPLYSACHLMIVSINRHWRQTHPDLTSEQLTKKVGDVIHQTRMSIKLPRIVVLDDDVDPADTESLLWALATRIHPERKRYFYESNIFPWLNCYSEEERHNRKGKRVIIDALLPENHGAISSFDYSYPDDIKQRVLMHWETDFSHD
B2: I283L-N285P-N287T-Q290E-S322T-N388M-K394R-C430A-L432F-L434W-S436N (protein)
chain: B1 chain with I283L, E284P, N285P, Q287T, Q290E, N430A, S470A
B3: I283T-P284D-N285M-E286D-N287T-S322T-N388M-K394R-C430A-L432F-L434W-S436N-G462P-A463P (protein)
chain: B1 chain with I283T, E284D, N285M, E286D, Q287T, N430A, G462P, A463P, S470A
B4: I283T-P284D-N287P-S322T-P368S-N388M-E421V-C430N-L432F-L434W-S436N-dG462 (protein)
chain: B1 chain with I283T, E284D, Q287P, P368S, R394K, E421V, S470A
B5: I283H-P284D-N285M-N287T-S322T-N388M-K394R-C430A-L432F-L434W-S436N-G462P-A463P (protein)
chain: B1 chain with I283H, E284D, N285M, Q287T, N430A, G462P, A463P, S470A
B6: I283T-N285P-E286D-N287T-Q290E-S322T-N388M-K394R-C430A-L432F-L434W-S436N-G462P-A463P (protein)
chain: B1 chain with I283T, E284P, N285P, E286D, Q287T, Q290E, N430A, G462P, A463P, S470A
B7: I283T-N285P-N287T-Q290E-S322T-Q365S-N388M-K394R-C430A-L432F-L434W-S436N-G462P-A463P (protein)
chain: B1 chain with I283T, E284P, N285P, Q287T, Q290E, Q365S, N430A, G462P, A463P, S470A
B8: I283T-P284D-N285M-E286A-N287T-S322T-N388M-K394R-C430A-L432F-L434W-S436N-G462P-A463P (protein)
chain: B1 chain with I283T, E284D, N285M, E286A, Q287T, N430A, G462P, A463P, S470A
B9: I283T-N285P-N287T-L289Y-Q290E-S322T-N388M-K394R-C430A-L432F-L434W-S436N-G462P-A463P (protein)
chain: B1 chain with I283T, E284P, N285P, Q287T, L289Y, Q290E, N430A, G462P, A463P, S470A
B10: I283T-P284D-N285V-N287T-S322T-N388M-K394R-C430A-L432F-L434W-S436N-G462P-A463P (protein)
chain: B1 chain with I283T, E284D, N285V, Q287T, N430A, G462P, A463P, S470A
B11: I283T-P284D-N287P-S322T-N388M-R422L-C430N-L432F-L434W-S436N-dG462 (protein)
chain: B1 chain with I283T, E284D, Q287P, R394K, R422L, S470A
B12: I283T-P284D-N285L-N287T-S322T-N388M-K394R-C430A-L432F-L434W-S436N-G462P-A463P (protein)
chain: B1 chain with I283T, E284D, N285L, Q287T, N430A, G462P, A463P, S470A
B13: I283T-P284D-N285M-N287T-L289R-S322T-N388M-K394R-C430A-L432F-L434W-S436N-G462P-A463P (protein)
chain: B1 chain with I283T, E284D, N285M, Q287T, L289R, N430A, G462P, A463P, S470A
B14: I283T-P284D-N285M-N287T-S288T-S322T-N388M-K394R-C430A-L432F-L434W-S436N-G462P-A463P (protein)
chain: B1 chain with I283T, E284D, N285M, Q287T, S288T, N430A, G462P, A463P, S470A
B15: N388M-K394R-C430A-L432F-L434W-S436N (protein)
chain: B1 chain with E284P, Q287N, T322S, N430A, S470A
B16: I283T-P284D-N285M-E286N-N287T-S322T-N388M-K394R-C430A-L432F-L434W-S436N-G462P-A463P (protein)
chain: B1 chain with I283T, E284D, N285M, E286N, Q287T, N430A, G462P, A463P, S470A
B17: I283Q-P284D-N285M-N287T-S322T-N388M-K394R-C430A-L432F-L434W-S436N-G462P-A463P (protein)
chain: B1 chain with I283Q, E284D, N285M, Q287T, N430A, G462P, A463P, S470A
B18: I283T-P284D-N285T-N287T-S322T-N388M-K394R-C430A-L432F-L434W-S436N-G462P-A463P (protein)
chain: B1 chain with I283T, E284D, N285T, Q287T, N430A, G462P, A463P, S470A
B19: N388M-K394R-C430N-L432F-L434W-S436N-H444L (protein)
chain: B1 chain with E284P, Q287N, T322S, H444L, S470A
B20: I283T-P284D-N285M-E286G-N287T-S322T-N388M-K394R-C430A-L432F-L434W-S436N-G462P-A463P (protein)
chain: B1 chain with I283T, E284D, N285M, E286G, Q287T, N430A, G462P, A463P, S470A
B21: N388M-K394R-C430N-L432F-L434W-S436N-H444N (protein)
chain: B1 chain with E284P, Q287N, T322S, H444N, S470A
B22: I283T-P284D-N285M-N287T-L289M-S322T-N388M-K394R-C430A-L432F-L434W-S436N-G462P-A463P (protein)
chain: B1 chain with I283T, E284D, N285M, Q287T, L289M, N430A, G462P, A463P, S470A
B23: I283T-P284D-N285H-N287T-S322T-N388M-K394R-C430A-L432F-L434W-S436N-G462P-A463P (protein)
chain: B1 chain with I283T, E284D, N285H, Q287T, N430A, G462P, A463P, S470A
B24: I283T-P284D-N287P-S322T-N388M-R422G-C430N-L432F-L434W-S436N-dG462 (protein)
chain: B1 chain with I283T, E284D, Q287P, R394K, R422G, S470A
B25: I283T-N285P-N287T-L289A-Q290E-S322T-N388M-K394R-C430A-L432F-L434W-S436N-G462P-A463P (protein)
chain: B1 chain with I283T, E284P, N285P, Q287T, L289A, Q290E, N430A, G462P, A463P, S470A
B26: I283T-P284D-N285M-N287T-L289Q-S322T-N388M-K394R-C430A-L432F-L434W-S436N-G462P-A463P (protein)
chain: B1 chain with I283T, E284D, N285M, Q287T, L289Q, N430A, G462P, A463P, S470A
B27: P25L-I283T-P284D-N287P-S322T-N388M-C430N-L432F-L434W-S436N-dG462 (protein)
chain: B1 chain with P25L, I283T, E284D, Q287P, R394K, S470A
B28: I283T-P284D-N287P-S322T-H384A-N388M-C430N-L432F-L434W-S436N-dG462 (protein)
chain: B1 chain with I283T, E284D, Q287P, H384A, R394K, S470A
B29: I283T-P284D-N285S-N287T-S322T-N388M-K394R-C430A-L432F-L434W-S436N-G462P-A463P (protein)
chain: B1 chain with I283T, E284D, N285S, Q287T, N430A, G462P, A463P, S470A
B30: I283T-P284D-N285M-N287T-S322T-N388M-K394R-C430T-L432F-L434W-S436N-G462P-A463P (protein)
chain: B1 chain with I283T, E284D, N285M, Q287T, N430T, G462P, A463P, S470A
B31: I283T-P284D-N285M-E286H-N287T-S322T-N388M-K394R-C430A-L432F-L434W-S436N-G462P-A463P (protein)
chain: B1 chain with I283T, E284D, N285M, E286H, Q287T, N430A, G462P, A463P, S470A
B32: I283T-N285P-N287T-Q290E-S322T-Q365M-N388M-K394R-C430A-L432F-L434W-S436N-G462P-A463P (protein)
chain: B1 chain with I283T, E284P, N285P, Q287T, Q290E, Q365M, N430A, G462P, A463P, S470A

Residue numbers refer to the chain shown, from its start. Names and notes keep the numbering of the source.

For the test, the system named is 3-methylcrotonic acid. Format: biochemical, Yersinia frederiksenii. Set-up: key: “+” representing a low increase in activity; “++++” representing a high increase in activity.
As to B1, the “Activity relative to WT” value is on record as “++++”.
The entry for B2 is “++++”; for B3 it is “++++”.
On to B4, for which the “Activity relative to WT” value is on record as “++++”.
The entry for B5 is “++++”; for B6 it is “++++”; for B7 it is “++++”.
For the molecule B8, the “Activity relative to WT” value was “++++”.
B9: the “Activity relative to WT” value is “++++”.
Turning to B10, the “Activity relative to WT” value is given as “++++”.
As for B11, the entry is “++++”; as for B12, “++++”; as for B13, “++++”.
The entry for B14 is “++++”; for B15 it is “+”.
For the molecule B16, the “Activity relative to WT” value was “++++”.
As for B17, the entry is “++++”.
As for B18, the entry is “++++”; as for B19, “+”.
As for B20, the entry is “++++”; as for B21, “+”; as for B22, “++++”.
B23: the “Activity relative to WT” value is listed as “++++”.
As for B24, the entry is “++++”.
On to B25, for which the “Activity relative to WT” value was “++++”.
As for B26, the entry is “++++”.
The entry for B27 is “++++”; for B28 it is “++++”; for B29 it is “++++”.
For B30, the “Activity relative to WT” value was “++++”.
Turning to B31, the “Activity relative to WT” value is on record as “++++”.
On to B32, for which the “Activity relative to WT” value was “++++”.

The values above are taken from patent US20250327097A1, “ORGANISMS PRODUCING LESS CROTONIC ACID” (Global Bioenergies, priority 2021, published 2025).
